One experiment concerns the target trypsin (human), P07477. Kind of experiment: cell-based or functional assay.
Experiment [1] deals with T1, human kallikrein 14 (hK14) (human) (UniProt Q9P0G3).
T1 sequence (looked up): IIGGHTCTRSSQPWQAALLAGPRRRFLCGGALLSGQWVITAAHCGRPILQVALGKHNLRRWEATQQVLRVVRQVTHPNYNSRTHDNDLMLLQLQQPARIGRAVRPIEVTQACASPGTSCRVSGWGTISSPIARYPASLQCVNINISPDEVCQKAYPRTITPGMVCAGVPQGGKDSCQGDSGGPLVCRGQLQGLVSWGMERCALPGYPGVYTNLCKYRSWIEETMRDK
In words: cell-based or functional assay.

Substitutions are numbered along the chain they refer to.
Also: test concentration or dose not given here.

B1: AATE8, P01009 25-418 (protein, human)
chain: HHHHHHEDPQGDAAQKTDTSHHDQDHPTFNKITPNLAEFAFSLYRQLAHQSNSTNIFFSPVSIATAFAMLSLGTKADTHDEILEGLNFNLTEIPEAQIHEGFQELLRTLNQPDSQLQLTTGNGLFLSEGLKLVDKFLEDVKKLYHSEAFTVNFGDTEEAKKQINDYVEKGTQGKIVDLVKELDRDTVFALVNYIFFKGKWERPFEVKDTEEEDFHVDQVTTVKVPMMKRLGMFNIQHCKKLSSWVLLMKYLGNATAIFFLPDEGKLQHLENELTHDIITKFLENEDRRSASLHLPKLSITGTYDLKSVLGQLGITKVFSNGADLSGVTEEAPLKLSKAVHKAVLTIDEKGTEAAGAMFLEALQRAIPPEVKFNKPFVFLMIEQNTKSPLFMGKVVNPTQK
Consider B1, for which, in the experiment with trypsin (human), P07477, the % Inhibition (in general, the relative decrease from the control value, in per cent) was found to be 100% and the Percentage inhibition amounted to 100%.

B2: AATG9, P01009 25-418 (protein, human)
chain: B1 chain with A361T, L362V, Q363D, R364Y
In the experiment with trypsin (human), P07477, B2 came in with a % Inhibition of 0% and a Percentage inhibition of 0%.

B3: AATG1g, P01009 25-418 (protein, human)
chain: B1 chain with A361G, L362S, Q363L, A365G
Molecule B3 registered a % Inhibition with trypsin (human), P07477 of 100%.

B4: AATG1, P01009 25-418 (protein, human)
chain: B1 chain with A361G, L362S, Q363L, A365S
Take B4: the % Inhibition in the experiment with trypsin (human), P07477 is 100%.

B5: AATC11, P01009 25-418 (protein, human)
chain: B1 chain with L362I, Q363P, A365Q, I366T, P367N
Molecule B5 returned a % Inhibition with trypsin (human), P07477 of 100%.

B6: ACTE8, P01011 24-423 (protein)
chain: MRGSHHHHHHSRHPNSPLDEENLTQENQDRGTHVDLGLASANVDFAFSLYKQLVLKAPDKNVIFSPLSISTALAFLSLGAHNTTLTEILKGLKFNLTETSEAEIHQSFQHLLRTLNQSSDELQLSMGNAMFVKEQLSLLDRFTEDAKRLYGSEAFATDFQDSAAAKKLINDYVKNGTRGKITDLIKDLDSQTMMVLVNYIFFKAKWEMPFDPQDTHQSRFYLSKKKWVMVPMMSLHHLTIPYFRDEELSCTVVELKYTGNASALFILPDQDKMEEVEAMLLPETLKRWRDSLEFREIGELYLPKFSISRDYNLNDILLQLGIEEAFTSKADLSGITGARNLAVSQVVHKAVLDVFEEGTEASAATAVKILQRAILVETRTIVRFNRPFLMIIVPTDTQNIFFMSKVTNPKQA
In the experiment with trypsin (human), P07477, B6 gave a % Inhibition of 100% and a Percentage inhibition of 100%.

B7: ACTC11, P01011 24-423 (protein)
chain: B6 chain with L370T, Q371L, A373Q, I374T, L375N
Molecule B7 came in with a % Inhibition in the experiment with trypsin (human), P07477 of 100%.

B8: ACTC11D, P01011 24-423 (protein)
chain: B6 chain with L370T, Q371L, A373Q, I374T, L375N, V376D
In turn, B8 gave a % Inhibition in the experiment with trypsin (human), P07477 of 100%.

B9: ACTG9, P01011 24-423 (protein)
chain: B6 chain with I369T, L370V, Q371D, R372Y, I374A
Regarding B9, in the experiment with trypsin (human), P07477, the Percentage inhibition was 0%.

B10: rACTWT (recombinant wild type alpha-1-antichymotrypsin) (protein, human)
chain: HHHHHHHPNSPLDEENLTQENQDRGTHVDLGLASANVDFAFSLYKQLVLKAPDKNVIFSPLSISTALAFLSLGAHNTTLTEILKGLKFNLTETSEAEIHQSFQHLLRTLNQSSDELQLSMGNAMFVKEQLSLLDRFTEDAKRLYGSEAFATDFQDSAAAKKLINDYVKNGTRGKITDLIKDLDSQTMMVLVNYIFFKAKWEMPFDPQDTHQSRFYLSKKKWVMVPMMSLHHLTIPYFRDEELSCTVVELKYTGNASALFILPDQDKMEEVEAMLLPETLKRWRDSLEFREIGELYLPKFSISRDYNLNDILLQLGIEEAFTSKADLSGITGARNLAVSQVVHKAVLDVFEEGTEASAATAVKITLLSALVETRTIVRFNRPFLMIIVPTDTQNIFFMSKVTNPKQA
In experiment [1], B10 returned a % Inhibition of 17% and a Percentage inhibition of 17%.

B11: rACTWT (recombinant wild type alpha-1-antichymotrypsin), P01011 24-423 (protein, human)
chain: B10 chain
For B11, in the experiment with trypsin (human), P07477, the % Inhibition worked out at 0% and the Percentage inhibition turned out to be 0%.

For the origin of these results see patent publication US20140341881A1.
